Results taken from IntAct's records for PubMed 22270917.

B1: Focal adhesion kinase 1 (Homo sapiens), Q05397 (parent)
chain: MAAAYLDPNLNHTPNSSTKTHLGTGMERSPGAMERVLKVFHYFESNSEPTTWASIIRHGDATDVRGIIQKIVDSHKVKHVACYGFRLSHLRSEEVHWLHVDMGVSSVREKYELAHPPEEWKYELRIRYLPKGFLNQFTEDKPTLNFFYQQVKSDYMLEIADQVDQEIALKLGCLEIRRSYWEMRGNALEKKSNYEVLEKDVGLKRFFPKSLLDSVKAKTLRKLIQQTFRQFANLNREESILKFFEILSPVYRFDKECFKCALGSSWIISVELAIGPEEGISYLTDKGCNPTHLADFTQVQTIQYSNSEDKDRKGMLQLKIAGAPEPLTVTAPSLTIAENMADLIDGYCRLVNGTSQSFIIRPQKEGERALPSIPKLANSEKQGMRTHAVSVSETDDYAEIIDEEDTYTMPSTRDYEIQRERIELGRCIGEGQFGDVHQGIYMSPENPALAVAIKTCKNCTSDSVREKFLQEALTMRQFDHPHIVKLIGVITENPVWIIMELCTLGELRSFLQVRKYSLDLASLILYAYQLSTALAYLESKRFVHRDIAARNVLVSSNDCVKLGDFGLSRYMEDSTYYKASKGKLPIKWMAPESINFRRFTSASDVWMFGVCMWEILMHGVKPFQGVKNNDVIGRIENGERLPMPPNCPPTLYSLMTKCWAYDPSRRPRFTELKAQLSTILEEEKAQQEERMRMESRRQATVSWDSGGSDEAPPKPSRPGYPSPRSSEGFYPSPQHMVQTNHYQVSGYPGSHGITAMAGSIYPGQASLLDQTDSWNHRPQEIAMWQPNVEDSTVLDLRGIGQVLPTHLMEERLIRQQQEMEEDQRWLEKEERFLKPDVRLSRGSIDREDGSLQGPIGNQHIYQPVGKPDPAAPPKKPPRPGAPGHLGSLASLSSPADSYNEGVKLQPQEISPPPTANLDRSNDKVYENVTGLVKAVIEMSSKIQPAPPEEYVPMVKEVGLALRTLLATVDETIPLLPASTHREIEMAQKLLNSDLGELINKMKLAQQYVMTSLQQEYKKQMLTAAHALAVDAKNLLDVIDQARLKMLGQTRPH

Variants of: B1
Details: with tln1_chick TLN1, P54939
Chain of tln1_chick TLN1, P54939 (P54939 whole entry): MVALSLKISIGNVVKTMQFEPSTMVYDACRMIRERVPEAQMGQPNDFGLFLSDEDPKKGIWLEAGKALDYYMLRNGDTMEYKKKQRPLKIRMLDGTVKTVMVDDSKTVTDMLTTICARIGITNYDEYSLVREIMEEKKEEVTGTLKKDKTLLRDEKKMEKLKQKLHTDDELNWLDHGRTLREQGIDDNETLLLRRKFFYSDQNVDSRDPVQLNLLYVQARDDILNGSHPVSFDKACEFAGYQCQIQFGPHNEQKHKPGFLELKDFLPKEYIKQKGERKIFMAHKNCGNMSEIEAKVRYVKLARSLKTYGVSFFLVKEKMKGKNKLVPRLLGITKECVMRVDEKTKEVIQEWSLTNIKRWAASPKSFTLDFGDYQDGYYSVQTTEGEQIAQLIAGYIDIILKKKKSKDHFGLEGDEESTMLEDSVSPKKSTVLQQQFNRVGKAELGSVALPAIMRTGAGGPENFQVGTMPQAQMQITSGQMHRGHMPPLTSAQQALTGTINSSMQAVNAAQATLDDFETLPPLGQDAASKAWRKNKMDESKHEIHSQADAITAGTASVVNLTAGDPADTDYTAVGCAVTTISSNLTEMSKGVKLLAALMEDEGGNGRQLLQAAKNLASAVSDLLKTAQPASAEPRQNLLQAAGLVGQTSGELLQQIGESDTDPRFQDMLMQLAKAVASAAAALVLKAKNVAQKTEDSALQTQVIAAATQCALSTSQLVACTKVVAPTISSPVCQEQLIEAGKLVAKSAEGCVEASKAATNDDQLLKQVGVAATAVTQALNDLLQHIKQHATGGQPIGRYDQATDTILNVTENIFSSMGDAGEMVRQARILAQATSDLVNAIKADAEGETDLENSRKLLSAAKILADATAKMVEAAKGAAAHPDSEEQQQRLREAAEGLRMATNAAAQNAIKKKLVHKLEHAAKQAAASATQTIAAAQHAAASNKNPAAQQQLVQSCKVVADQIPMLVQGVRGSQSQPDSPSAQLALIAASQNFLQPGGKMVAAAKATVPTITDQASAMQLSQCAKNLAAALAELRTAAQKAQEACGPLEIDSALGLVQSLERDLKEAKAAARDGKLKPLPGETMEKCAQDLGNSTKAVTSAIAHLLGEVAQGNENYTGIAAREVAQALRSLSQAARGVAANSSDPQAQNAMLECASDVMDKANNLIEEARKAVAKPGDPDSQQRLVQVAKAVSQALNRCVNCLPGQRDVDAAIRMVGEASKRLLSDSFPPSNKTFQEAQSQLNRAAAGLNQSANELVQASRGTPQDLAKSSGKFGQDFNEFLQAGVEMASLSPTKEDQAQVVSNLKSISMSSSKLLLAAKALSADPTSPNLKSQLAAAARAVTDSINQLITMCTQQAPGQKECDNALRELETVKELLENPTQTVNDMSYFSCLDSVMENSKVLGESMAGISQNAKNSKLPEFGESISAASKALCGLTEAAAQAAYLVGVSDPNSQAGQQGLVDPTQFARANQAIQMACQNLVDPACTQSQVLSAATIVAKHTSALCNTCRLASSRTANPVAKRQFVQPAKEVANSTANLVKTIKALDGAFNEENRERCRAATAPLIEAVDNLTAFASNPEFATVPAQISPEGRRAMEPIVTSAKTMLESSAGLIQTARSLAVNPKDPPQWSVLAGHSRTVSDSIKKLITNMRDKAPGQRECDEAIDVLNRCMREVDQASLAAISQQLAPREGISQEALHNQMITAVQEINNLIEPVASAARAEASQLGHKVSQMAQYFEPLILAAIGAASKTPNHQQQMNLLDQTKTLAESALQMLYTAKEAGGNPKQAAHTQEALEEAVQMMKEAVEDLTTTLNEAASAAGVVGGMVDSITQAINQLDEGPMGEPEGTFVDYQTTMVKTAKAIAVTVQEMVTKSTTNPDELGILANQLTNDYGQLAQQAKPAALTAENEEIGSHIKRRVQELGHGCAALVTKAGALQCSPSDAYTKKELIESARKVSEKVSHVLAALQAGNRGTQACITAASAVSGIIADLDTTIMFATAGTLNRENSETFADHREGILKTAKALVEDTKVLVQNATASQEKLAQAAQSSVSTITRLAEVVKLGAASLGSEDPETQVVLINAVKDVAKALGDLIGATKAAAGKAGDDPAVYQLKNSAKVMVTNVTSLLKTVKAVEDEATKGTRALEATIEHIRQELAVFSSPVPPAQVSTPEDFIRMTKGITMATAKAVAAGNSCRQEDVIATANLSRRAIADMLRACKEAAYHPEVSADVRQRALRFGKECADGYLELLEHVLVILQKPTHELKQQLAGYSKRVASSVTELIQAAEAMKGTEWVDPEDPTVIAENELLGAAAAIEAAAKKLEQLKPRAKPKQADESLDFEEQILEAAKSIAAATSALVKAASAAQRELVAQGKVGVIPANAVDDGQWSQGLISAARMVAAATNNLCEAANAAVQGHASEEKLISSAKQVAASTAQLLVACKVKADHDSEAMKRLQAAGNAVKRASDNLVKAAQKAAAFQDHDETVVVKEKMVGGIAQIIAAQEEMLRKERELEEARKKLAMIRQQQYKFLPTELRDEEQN

For E1015A, which “effect of a mutation on the interaction” value is on record?
Its value is “disrupting interaction”.
